Molecular target: the molecule itself
Test: SEC

B1: 10His-pG-Tn5(E54K, L372P) (enzyme, UniProt Q46731 1-476, looked up)
chain: MITSALHRAADWAKSVFSSAALGDPRRTARLVNVAAQLAKYSGKSITISSEGSKAMQEGAYRFIRNPNVSAEAIRKAGAMQTVKLAQEFPELLAIEDTTSLSYRHQVAEELGKLGSIQDKSRGWWVHSVLLLEATTFRTVGLLHQEWWMRPDDPADADEKESGKWLAAAATSRLRMGSMMSNVIAVCDREADIHAYLQDKLAHNERFVVRSKHPRKDVESGLYLYDHLKNQPELGGYQISIPQKGVVDKRGKRKNRPARKASLSLRSGRITLKQGNITLNAVLAEEINPPKGETPLKWLLLTSEPVESLAQALRVIDIYTHRWRIEEFHKAWKTGAGAERQRMEEPDNLERMVSILSFVAVRLLQLRESFTPPQALRAQGLLKEAEHVESQSAETVLTPDECQLLGYLDKGKRKRKEKAGSLQWAYMAIARLGGFMDSKRTGIASWGALWEGWEALQSKLDGFLAAKDLMAQGIKI
B1: binds.
